# Measured values from patent US20260193342A1 (ZOETIS SERVICES, published 2026).
# Experiments:
# [1] = molecular target: T1, canine FcRn complex (FcRn-α subunit and β-microglobulin) (canine, UniProt A0A8I3PFR8 25-347, biotin on the BAP tag by BirA (Example 5 only)); assay: SPR (Biacore), biotinylated FcRn on SA chip, IgG flowed, pH 7.4, 15 C
# [2] = molecular target: T1, canine FcRn complex (FcRn-α subunit and …); assay: SPR (Biacore), biotinylated FcRn on SA chip, IgG flowed, pH 6, 15 C
# T1 sequence (A0A8I3PFR8 entry or part of it, one chain of several): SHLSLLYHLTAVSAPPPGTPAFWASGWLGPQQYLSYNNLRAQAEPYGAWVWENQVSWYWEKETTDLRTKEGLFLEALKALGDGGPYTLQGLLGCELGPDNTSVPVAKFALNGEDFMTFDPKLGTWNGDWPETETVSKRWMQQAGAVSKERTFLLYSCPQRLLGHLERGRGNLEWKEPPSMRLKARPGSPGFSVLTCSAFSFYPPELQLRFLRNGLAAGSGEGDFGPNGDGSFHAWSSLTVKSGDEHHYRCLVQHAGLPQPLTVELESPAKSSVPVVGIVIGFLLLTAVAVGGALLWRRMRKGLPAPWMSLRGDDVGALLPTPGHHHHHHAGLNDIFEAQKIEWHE
Binder,Kd [1],Kd [2]
"mAb2 of Table 4A, caninized anti-NGF antibody ZTS-841, canine IgGA, N434W (antibody, also called ID No. 44) heavy: EVQLVESGGDLVKPGGSLRLSCVASGFTFSSHGMHWVRQSPGKGLQWVAVINSGGSSTYYTDAVKGRFTISRDNAKNTVYLQMNSLRAEDTAMYYCAKESVGGWEQLVGPHFDYWGQGTLVIVSSASTTAPSVFPLAPSCGSTSGSTVALACLVSGYFPEPVTVSWNSGSLTSGVHTFPSVLQSSGLHSLSSMVTVPSSRWPSETFTCNVVHPASNTKVDKPVFNECRCTDTPPCPVPEPLGGPSVLIFPPKPKDILRITRTPEVTCVVLDLGREDPEVQISWFVDGKEVHTAKTQSREQQFNGTYRVVSVLPIEHQDWLTGKEFKCRVNHIDLPSPIERTISKARGRAHKPSVYVLPPSPKELSSSDTVSITCLIKDFYPPDIDVEWQSNGQQEPERKHRMTPPQLDEDGSYFLYSKLSVDKSRWQQGDPFTCAVMHETLQWHYTDLSLSHSPGK VL: QSVLTQPTSVSGSLGQRVTISCSGSTNNIGILGASWYQLFPGKAPKLLVYGNGNRPSGVPDRFSGADSGDSVTLTITGLQAEDEADYYCQSFDTTLGAHVFGGGTHLTVL",1520 nM,10.6 nM
"mAb1, caninized anti-IL31 antibody 34D03, canine IgGA, N434Y (antibody, VH/VL: the caninized 34D03 entries of the listing; also called ID No. 7; copies: 2 + 2) heavy: EVQLVESGGDLVKPGGSLRLSCVASGFTFSNYGMSWVRQAPGKGLQWVATISYGGSYTYYPDNIKGRFTISRDNAKNTLYLQMNSLRAEDTAMYYCVRGYGYDTMDYWGQGTLVTVSSASTTAPSVFPLAPSCGSTSGSTVALACLVSGYFPEPVTVSWNSGSLTSGVHTFPSVLQSSGLHSLSSMVTVPSSRWPSETFTCNVVHPASNTKVDKPVFNECRCTDTPPCPVPEPLGGPSVLIFPPKPKDILRITRTPEVTCVVLDLGREDPEVQISWFVDGKEVHTAKTQSREQQFNGTYRVVSVLPIEHQDWLTGKEFKCRVNHIDLPSPIERTISKARGRAHKPSVYVLPPSPKELSSSDTVSITCLIKDFYPPDIDVEWQSNGQQEPERKHRMTPPQLDEDGSYFLYSKLSVDKSRWQQGDPFTCAVMHETLQYHYTDLSLSHSPGK light: EIVMTQSPASLSLSQEEKVTITCKASQSVSFAGTGLMHWYQQKPGQAPKLLIYRASNLEAGVPSRFSGSGSGTDFSFTISSLEPEDVAVYYCQQSREYPWTFGQGTKLEIKRNDAQPAVYLFQPSPDQLHTGSASVVCLLNSFYPKDINVKWKVDGVIQDTGIQESVTEQDKDSTYSLSSTLTMSSTEYLSHELYSCEITHKSLPSTLIKSFQRSEC",573 nM,25.2 nM
"mAb2 of Table 4A, caninized anti-NGF antibody ZTS-841, canine IgGA, N434Y (antibody, also called ID No. 45) heavy: EVQLVESGGDLVKPGGSLRLSCVASGFTFSSHGMHWVRQSPGKGLQWVAVINSGGSSTYYTDAVKGRFTISRDNAKNTVYLQMNSLRAEDTAMYYCAKESVGGWEQLVGPHFDYWGQGTLVIVSSASTTAPSVFPLAPSCGSTSGSTVALACLVSGYFPEPVTVSWNSGSLTSGVHTFPSVLQSSGLHSLSSMVTVPSSRWPSETFTCNVVHPASNTKVDKPVFNECRCTDTPPCPVPEPLGGPSVLIFPPKPKDILRITRTPEVTCVVLDLGREDPEVQISWFVDGKEVHTAKTQSREQQFNGTYRVVSVLPIEHQDWLTGKEFKCRVNHIDLPSPIERTISKARGRAHKPSVYVLPPSPKELSSSDTVSITCLIKDFYPPDIDVEWQSNGQQEPERKHRMTPPQLDEDGSYFLYSKLSVDKSRWQQGDPFTCAVMHETLQYHYTDLSLSHSPGK VL: QSVLTQPTSVSGSLGQRVTISCSGSTNNIGILGASWYQLFPGKAPKLLVYGNGNRPSGVPDRFSGADSGDSVTLTITGLQAEDEADYYCQSFDTTLGAHVFGGGTHLTVL",9530 nM,14.3 nM
"mAb1, caninized anti-IL31 antibody 34D03, canine IgGB, N434A (antibody, VH/VL: the caninized 34D03 entries of the listing; also called ID No. 9; copies: 2 + 2) heavy: EVQLVESGGDLVKPGGSLRLSCVASGFTFSNYGMSWVRQAPGKGLQWVATISYGGSYTYYPDNIKGRFTISRDNAKNTLYLQMNSLRAEDTAMYYCVRGYGYDTMDYWGQGTLVTVSSASTTAPSVFPLAPSCGSTSGSTVALACLVSGYFPEPVTVSWNSGSLTSGVHTFPSVLQSSGLYSLSSMVTVPSSRWPSETFTCNVAHPASKTKVDKPVPKRENGRVPRPPDCPKCPAPEMLGGPSVFIFPPKPKDTLLIARTPEVTCVVVDLDPEDPEVQISWFVDGKQMQTAKTQPREEQFNGTYRVVSVLPIGHQDWLKGKQFTCKVNNKALPSPIERTISKARGQAHQPSVYVLPPSREELSKNTVSLTCLIKDFFPPDIDVEWQSNGQQEPESKYRTTPPQLDEDGSYFLYSKLSVDKSRWQRGDTFICAVMHEALHAHYTQESLSHSPGK light: EIVMTQSPASLSLSQEEKVTITCKASQSVSFAGTGLMHWYQQKPGQAPKLLIYRASNLEAGVPSRFSGSGSGTDFSFTISSLEPEDVAVYYCQQSREYPWTFGQGTKLEIKRNDAQPAVYLFQPSPDQLHTGSASVVCLLNSFYPKDINVKWKVDGVIQDTGIQESVTEQDKDSTYSLSSTLTMSSTEYLSHELYSCEITHKSLPSTLIKSFQRSEC",175 nM,139 nM
"mAb1, caninized anti-IL31 antibody 34D03, canine IgGB, N434F (antibody, VH/VL: the caninized 34D03 entries of the listing; also called ID No. 10; copies: 2 + 2) heavy: EVQLVESGGDLVKPGGSLRLSCVASGFTFSNYGMSWVRQAPGKGLQWVATISYGGSYTYYPDNIKGRFTISRDNAKNTLYLQMNSLRAEDTAMYYCVRGYGYDTMDYWGQGTLVTVSSASTTAPSVFPLAPSCGSTSGSTVALACLVSGYFPEPVTVSWNSGSLTSGVHTFPSVLQSSGLYSLSSMVTVPSSRWPSETFTCNVAHPASKTKVDKPVPKRENGRVPRPPDCPKCPAPEMLGGPSVFIFPPKPKDTLLIARTPEVTCVVVDLDPEDPEVQISWFVDGKQMQTAKTQPREEQFNGTYRVVSVLPIGHQDWLKGKQFTCKVNNKALPSPIERTISKARGQAHQPSVYVLPPSREELSKNTVSLTCLIKDFFPPDIDVEWQSNGQQEPESKYRTTPPQLDEDGSYFLYSKLSVDKSRWQRGDTFICAVMHEALHFHYTQESLSHSPGK light: EIVMTQSPASLSLSQEEKVTITCKASQSVSFAGTGLMHWYQQKPGQAPKLLIYRASNLEAGVPSRFSGSGSGTDFSFTISSLEPEDVAVYYCQQSREYPWTFGQGTKLEIKRNDAQPAVYLFQPSPDQLHTGSASVVCLLNSFYPKDINVKWKVDGVIQDTGIQESVTEQDKDSTYSLSSTLTMSSTEYLSHELYSCEITHKSLPSTLIKSFQRSEC",33700 nM,30.7 nM
"mAb1, caninized anti-IL31 antibody 34D03, canine IgGB, N434G (antibody, VH/VL: the caninized 34D03 entries of the listing; also called ID No. 11; copies: 2 + 2) heavy: EVQLVESGGDLVKPGGSLRLSCVASGFTFSNYGMSWVRQAPGKGLQWVATISYGGSYTYYPDNIKGRFTISRDNAKNTLYLQMNSLRAEDTAMYYCVRGYGYDTMDYWGQGTLVTVSSASTTAPSVFPLAPSCGSTSGSTVALACLVSGYFPEPVTVSWNSGSLTSGVHTFPSVLQSSGLYSLSSMVTVPSSRWPSETFTCNVAHPASKTKVDKPVPKRENGRVPRPPDCPKCPAPEMLGGPSVFIFPPKPKDTLLIARTPEVTCVVVDLDPEDPEVQISWFVDGKQMQTAKTQPREEQFNGTYRVVSVLPIGHQDWLKGKQFTCKVNNKALPSPIERTISKARGQAHQPSVYVLPPSREELSKNTVSLTCLIKDFFPPDIDVEWQSNGQQEPESKYRTTPPQLDEDGSYFLYSKLSVDKSRWQRGDTFICAVMHEALHGHYTQESLSHSPGK light: EIVMTQSPASLSLSQEEKVTITCKASQSVSFAGTGLMHWYQQKPGQAPKLLIYRASNLEAGVPSRFSGSGSGTDFSFTISSLEPEDVAVYYCQQSREYPWTFGQGTKLEIKRNDAQPAVYLFQPSPDQLHTGSASVVCLLNSFYPKDINVKWKVDGVIQDTGIQESVTEQDKDSTYSLSSTLTMSSTEYLSHELYSCEITHKSLPSTLIKSFQRSEC",26000 nM,118 nM
"mAb2 of Table 4A, caninized anti-NGF antibody ZTS-841, canine IgGD, WT (antibody, also called ID No. 55) heavy: EVQLVESGGDLVKPGGSLRLSCVASGFTFSSHGMHWVRQSPGKGLQWVAVINSGGSSTYYTDAVKGRFTISRDNAKNTVYLQMNSLRAEDTAMYYCAKESVGGWEQLVGPHFDYWGQGTLVIVSSASTTAPSVFPLAPSCGSTSGSTVALACLVSGYFPEPVTVSWNSGSLTSGVHTFPSVLQSSGLYSLSSTVTVPSSRWPSETFTCNVVHPASNTKVDKPVPKESTCKCISPCPVPESLGGPSVFIFPPKPKDILRITRTPEITCVVLDLGREDPEVQISWFVDGKEVHTAKTQPREQQFNSTYRVVSVLPIEHQDWLTGKEFKCRVNHIGLPSPIERTISKARGQAHQPSVYVLPPSPKELSSSDTVTLTCLIKDFFPPEIDVEWQSNGQPEPESKYHTTAPQLDEDGSYFLYSKLSVDKSRWQQGDTFTCAVMHEALQNHYTDLSLSHSPGK VL: QSVLTQPTSVSGSLGQRVTISCSGSTNNIGILGASWYQLFPGKAPKLLVYGNGNRPSGVPDRFSGADSGDSVTLTITGLQAEDEADYYCQSFDTTLGAHVFGGGTHLTVL",,71 nM
"mAb1, caninized anti-IL31 antibody 34D03, canine IgGD, N434H (antibody) chain 1: EVQLVESGGDLVKPGGSLRLSCVASGFTFSNYGMSWVRQAPGKGLQWVATISYGGSYTYYPDNIKGRFTISRDNAKNTLYLQMNSLRAEDTAMYYCVRGYGYDTMDYWGQGTLVTVSSASTTAPSVFPLAPSCGSTSGSTVALACLVSGYFPEPVTVSWNSGSLTSGVHTFPSVLQSSGLYSLSSTVTVPSSRWPSETFTCNVVHPASNTKVDKPVPKESTCKCISPCPVPESLGGPSVFIFPPKPKDILRITRTPEITCVVLDLGREDPEVQISWFVDGKEVHTAKTQPREQQFNSTYRVVSVLPIEHQDWLTGKEFKCRVNHIGLPSPIERTISKARGQAHQPSVYVLPPSPKELSSSDTVTLTCLIKDFFPPEIDVEWQSNGQPEPESKYHTTAPQLDEDGSYFLYSKLSVDKSRWQQGDTFTCAVMHEALQHHYTDLSLSHSPGK chain 2: EIVMTQSPASLSLSQEEKVTITCKASQSVSFAGTGLMHWYQQKPGQAPKLLIYRASNLEAGVPSRFSGSGSGTDFSFTISSLEPEDVAVYYCQQSREYPWTFGQGTKLEIKRNDAQPAVYLFQPSPDQLHTGSASVVCLLNSFYPKDINVKWKVDGVIQDTGIQESVTEQDKDSTYSLSSTLTMSSTEYLSHELYSCEITHKSLPSTLIKSFQRSEC",,3.21 nM
"mAb2 of Table 4A, caninized anti-NGF antibody ZTS-841, canine IgGD, N434H (antibody, also called ID No. 56) heavy: EVQLVESGGDLVKPGGSLRLSCVASGFTFSSHGMHWVRQSPGKGLQWVAVINSGGSSTYYTDAVKGRFTISRDNAKNTVYLQMNSLRAEDTAMYYCAKESVGGWEQLVGPHFDYWGQGTLVIVSSASTTAPSVFPLAPSCGSTSGSTVALACLVSGYFPEPVTVSWNSGSLTSGVHTFPSVLQSSGLYSLSSTVTVPSSRWPSETFTCNVVHPASNTKVDKPVPKESTCKCISPCPVPESLGGPSVFIFPPKPKDILRITRTPEITCVVLDLGREDPEVQISWFVDGKEVHTAKTQPREQQFNSTYRVVSVLPIEHQDWLTGKEFKCRVNHIGLPSPIERTISKARGQAHQPSVYVLPPSPKELSSSDTVTLTCLIKDFFPPEIDVEWQSNGQPEPESKYHTTAPQLDEDGSYFLYSKLSVDKSRWQQGDTFTCAVMHEALQHHYTDLSLSHSPGK VL: QSVLTQPTSVSGSLGQRVTISCSGSTNNIGILGASWYQLFPGKAPKLLVYGNGNRPSGVPDRFSGADSGDSVTLTITGLQAEDEADYYCQSFDTTLGAHVFGGGTHLTVL",,12 nM
